Reference: patent US20220119490A1 (Genentech, published 2022)

T1: EPHA3 extracellular domain (human, UniProt P29320 21-541)
T1 construct: extracellular domain; ECD construct; also called ephrin type-A receptor 3
T1 sequence (looked up): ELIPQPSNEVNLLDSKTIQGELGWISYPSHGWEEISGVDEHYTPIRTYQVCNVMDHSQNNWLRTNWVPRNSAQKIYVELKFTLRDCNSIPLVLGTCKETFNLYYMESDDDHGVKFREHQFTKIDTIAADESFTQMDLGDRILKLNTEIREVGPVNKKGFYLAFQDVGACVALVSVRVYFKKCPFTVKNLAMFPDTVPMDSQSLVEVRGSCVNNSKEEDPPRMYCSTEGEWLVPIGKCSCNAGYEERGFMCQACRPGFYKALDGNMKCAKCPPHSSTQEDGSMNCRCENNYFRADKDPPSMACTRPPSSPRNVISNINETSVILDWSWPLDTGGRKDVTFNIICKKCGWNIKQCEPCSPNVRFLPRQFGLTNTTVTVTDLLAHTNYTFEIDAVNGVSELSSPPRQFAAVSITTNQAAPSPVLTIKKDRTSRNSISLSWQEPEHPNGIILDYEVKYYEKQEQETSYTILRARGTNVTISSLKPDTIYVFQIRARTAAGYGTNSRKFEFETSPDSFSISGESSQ

T2: IL6R expressed on cells (human, UniProt P08887 20-468)
T2 construct: whole, on cells; C-terminally tagged in the co-IP; also called IL6R-HA
T2 sequence (looked up): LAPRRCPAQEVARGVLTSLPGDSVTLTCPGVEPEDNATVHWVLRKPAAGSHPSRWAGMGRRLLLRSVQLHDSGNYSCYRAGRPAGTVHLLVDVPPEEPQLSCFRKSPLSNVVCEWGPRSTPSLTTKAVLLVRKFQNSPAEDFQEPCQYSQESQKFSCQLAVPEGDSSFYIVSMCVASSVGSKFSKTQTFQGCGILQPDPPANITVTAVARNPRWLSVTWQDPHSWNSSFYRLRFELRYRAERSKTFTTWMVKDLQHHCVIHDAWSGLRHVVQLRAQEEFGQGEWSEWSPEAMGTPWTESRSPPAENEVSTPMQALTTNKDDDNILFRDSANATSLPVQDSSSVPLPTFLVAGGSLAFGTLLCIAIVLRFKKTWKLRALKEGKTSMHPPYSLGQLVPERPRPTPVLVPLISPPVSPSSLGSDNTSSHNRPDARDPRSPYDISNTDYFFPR

T3: CD177 extracellular domain (human, UniProt Q8N6Q3 22-408, limits assumed)
T3 construct: extracellular domain; ECD-gD-GPI on COS-7 cells in the screen; recombinant ECD in SPR and CAF assays; streptavidin tetramer in organoid cultures; also called NB1; PRV1
T3 sequence (looked up): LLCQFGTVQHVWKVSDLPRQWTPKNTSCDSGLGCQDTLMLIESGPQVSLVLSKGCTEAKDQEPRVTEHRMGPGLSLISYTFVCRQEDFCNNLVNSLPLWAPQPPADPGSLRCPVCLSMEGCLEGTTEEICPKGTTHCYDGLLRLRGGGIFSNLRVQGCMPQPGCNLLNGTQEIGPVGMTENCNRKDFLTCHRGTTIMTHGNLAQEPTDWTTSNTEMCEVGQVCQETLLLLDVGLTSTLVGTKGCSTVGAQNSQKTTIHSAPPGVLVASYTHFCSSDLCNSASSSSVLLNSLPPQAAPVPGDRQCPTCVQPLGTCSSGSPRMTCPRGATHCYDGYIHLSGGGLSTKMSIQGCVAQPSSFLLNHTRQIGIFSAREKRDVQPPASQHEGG

B1: LILRA3 (ECD-Fc fusion protein) (Fc fusion, human, UniProt Q8N6C8 24-439, looked up)
chain: GPLPKPTLWAEPGSVITQGSPVTLRCQGSLETQEYHLYREKKTALWITRIPQELVKKGQFPILSITWEHAGRYCCIYGSHTAGLSESSDPLELVVTGAYSKPTLSALPSPVVTSGGNVTIQCDSQVAFDGFILCKEGEDEHPQCLNSHSHARGSSRAIFSVGPVSPSRRWSYRCYGYDSRAPYVWSLPSDLLGLLVPGVSKKPSLSVQPGPVVAPGEKLTFQCGSDAGYDRFVLYKEWGRDFLQRPGRQPQAGLSQANFTLGPVSRSYGGQYTCSGAYNLSSEWSAPSDPLDILITGQIRARPFLSVRPGPTVASGENVTLLCQSQGGMHTFLLTKEGAADSPLRLKSKRQSHKYQAEFPMSPVTSAHAGTYRCYGSLSSNPYLLTHPSDPLELVVSGAAETLSPPQNKSDSKAGE
notes: extracellular domain; Immobilized on the SPR chip
B2: EDAR expressed on cells (receptor, human, UniProt Q9UNE0 27-448, looked up)
chain: EYSNCGENEYYNQTTGLCQECPPCGPGEEPYLSCGYGTKDEDYGCVPCPAEKFSKGGYQICRRHKDCEGFFRATVLTPGDMENDAECGPCLPGYYMLENRPRNIYGMVCYSCLLAPPNTKECVGATSGASANFPGTSGSSTLSPFQHAHKELSGQGHLATALIIAMSTIFIMAIAIVLIIMFYILKTKPSAPACCTSHPGKSVEAQVSKDEEKKEAPDNVVMFSEKDEFEKLTATPAKPTKSENDASSENEQLLSRSVDSDEEPAPDKQGSPELCLLSLVHLAREKSATSNKSAGIQSRRKKILDVYANVCGVVEGLSPTELPFDCLEKTSRMLSSTYNSEKAVVKTWRHLAESFGLKRDEIGGMTDGMQLFDRISTAGYSIPELLTKLVQIERLDAVESLCADILEWAGVVPPASQPHAAS
notes: whole, on cells; C-terminally tagged in the co-IP; also called EDAR-HA
B3: LILRB5 extracellular domain (receptor, human, UniProt O75023 24-458, looked up)
chain: GTLPKPTLWAEPASVIARGKPVTLWCQGPLETEEYRLDKEGLPWARKRQNPLEPGAKAKFHIPSTVYDSAGRYRCYYETPAGWSEPSDPLELVATGFYAEPTLLALPSPVVASGGNVTLQCDTLDGLLTFVLVEEEQKLPRTLYSQKLPKGPSQALFPVGPVTPSCRWRFRCYYYYRKNPQVWSNPSDLLEILVPGVSRKPSLLIPQGSVVARGGSLTLQCRSDVGYDIFVLYKEGEHDLVQGSGQQPQAGLSQANFTLGPVSRSHGGQYRCYGAHNLSPRWSAPSDPLDILIAGLIPDIPALSVQPGPKVASGENVTLLCQSWHQIDTFFLTKEGAAHPPLCLKSKYQSYRHQAEFSMSPVTSAQGGTYRCYSAIRSYPYLLSSPSYPQELVVSGPSGDPSLSPTGSTPTPGPEDQPLTPTGLDPQSGLGRHLG
notes: extracellular domain
B4: LILRB5 expressed on cells (receptor, human, UniProt O75023 24-590, looked up)
chain: GTLPKPTLWAEPASVIARGKPVTLWCQGPLETEEYRLDKEGLPWARKRQNPLEPGAKAKFHIPSTVYDSAGRYRCYYETPAGWSEPSDPLELVATGFYAEPTLLALPSPVVASGGNVTLQCDTLDGLLTFVLVEEEQKLPRTLYSQKLPKGPSQALFPVGPVTPSCRWRFRCYYYYRKNPQVWSNPSDLLEILVPGVSRKPSLLIPQGSVVARGGSLTLQCRSDVGYDIFVLYKEGEHDLVQGSGQQPQAGLSQANFTLGPVSRSHGGQYRCYGAHNLSPRWSAPSDPLDILIAGLIPDIPALSVQPGPKVASGENVTLLCQSWHQIDTFFLTKEGAAHPPLCLKSKYQSYRHQAEFSMSPVTSAQGGTYRCYSAIRSYPYLLSSPSYPQELVVSGPSGDPSLSPTGSTPTPGPEDQPLTPTGLDPQSGLGRHLGVVTGVSVAFVLLLFLLLFLLLRHRHQSKHRTSAHFYRPAGAAGPEPKDQGLQKRASPVADIQEEILNAAVKDTQPKDGVEMDAPAAASEAPQDVTYAQLHSLTLRREATEPPPSQEREPPAEPSIYAPLAIH
notes: whole, on cells
B5: LILRB1 extracellular domain (receptor, human, UniProt Q8NHL6 24-461, looked up)
chain: GHLPKPTLWAEPGSVITQGSPVTLRCQGGQETQEYRLYREKKTALWITRIPQELVKKGQFPIPSITWEHAGRYRCYYGSDTAGRSESSDPLELVVTGAYIKPTLSAQPSPVVNSGGNVILQCDSQVAFDGFSLCKEGEDEHPQCLNSQPHARGSSRAIFSVGPVSPSRRWWYRCYAYDSNSPYEWSLPSDLLELLVLGVSKKPSLSVQPGPIVAPEETLTLQCGSDAGYNRFVLYKDGERDFLQLAGAQPQAGLSQANFTLGPVSRSYGGQYRCYGAHNLSSEWSAPSDPLDILIAGQFYDRVSLSVQPGPTVASGENVTLLCQSQGWMQTFLLTKEGAADDPWRLRSTYQSQKYQAEFPMGPVTSAHAGTYRCYGSQSSKPYLLTHPSDPLELVVSGPSGGPSSPTTGPTSTSGPEDQPLTPTGSDPQSGLGRHLGV
notes: extracellular domain; also called leukocyte immunoglobulin-like receptor subfamily B member 1
B6: podoplanin (PDPN) extracellular domain (receptor, human, UniProt Q86YL7 23-131, looked up)
chain: ASTGQPEDDTETTGLEGGVAMPGAEDDVVTPGTSEDRYKSGLTTLVATSVNSVTGIRIEDLPTSESTVHAQEQSPSATASNVATSHSTEKVDGDTQTTVEKDGLSTVTL
modifications: biotinylated Avi tag in the tetramer
notes: extracellular domain; Streptavidin-APC tetramer in the screens; monomeric Avi-tagged ectodomain for KD; also called gp38; Aggrus
B7: CNTFR extracellular domain (receptor, human, UniProt P26992 23-342, looked up)
chain: QRHSPQEAPHVQYERLGSDVTLPCGTANWDAAVTWRVNGTDLAPDLLNGSQLVLHGLELGHSGLYACFHRDSWHLRHQVLLHVGLPPREPVLSCRSNTYPKGFYCSWHLPTPTYIPNTFNVTVLHGSKIMVCEKDPALKNRCHIRYMHLFSTIKYKVSISVSNALGHNATAITFDEFTIVKPDPPENVVARPVPSNPRRLEVTWQTPSTWPDPESFPLKFFLRYRPLILDQWQHVELSDGTAHTITDAYAGKEYIIQVAAKDNEIGTWSDWSVAAHATPWTEEPRHLTTEAQAAETTTSTTSSLAPPPTTKICDPGELGS
notes: extracellular domain; Soluble query, streptavidin tetramer

How the values were obtained:
[1] = molecular target: T1, EPHA3 extracellular domain; assay: SPR, LILRA3 ECD-Fc immobilized, ECD-Fc analytes at 250 nM
Description: (§1) An irrelevant Fc-tagged protein was used as a control. Sensorgram shown is representative of at least 3 independent runs.

EPHA5 = molecular target: T4, EPHA5 (human, UniProt P54756); assay: as above
T4 construct: extracellular domain; analyte at 250 nM on immobilized LILRA3
T4 sequence (P54756 25-573): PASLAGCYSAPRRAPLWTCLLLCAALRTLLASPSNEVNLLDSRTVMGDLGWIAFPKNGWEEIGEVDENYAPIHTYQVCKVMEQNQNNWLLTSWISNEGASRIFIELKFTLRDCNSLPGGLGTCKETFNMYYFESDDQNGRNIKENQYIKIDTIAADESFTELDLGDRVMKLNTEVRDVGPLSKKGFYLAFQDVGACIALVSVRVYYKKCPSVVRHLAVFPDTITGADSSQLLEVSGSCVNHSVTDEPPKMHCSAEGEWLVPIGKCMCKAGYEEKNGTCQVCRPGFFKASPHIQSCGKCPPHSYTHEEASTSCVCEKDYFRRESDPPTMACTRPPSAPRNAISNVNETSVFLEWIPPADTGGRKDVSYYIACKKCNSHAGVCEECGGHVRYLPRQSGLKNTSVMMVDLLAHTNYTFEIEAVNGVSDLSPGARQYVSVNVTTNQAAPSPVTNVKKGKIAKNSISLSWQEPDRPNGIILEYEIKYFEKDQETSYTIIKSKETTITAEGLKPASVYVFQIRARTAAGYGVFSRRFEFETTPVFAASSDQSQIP
Description: as §1

[2] = molecular target: B5; assay: cell surface interaction assay: soluble multimerized LILRB on transfected cells
LDLR expressed on cells = molecular target: T5, LDLR expressed on cells (human, UniProt P01130 22-860); assay: as above
T5 construct: whole, on cells
T5 sequence (P01130 22-860): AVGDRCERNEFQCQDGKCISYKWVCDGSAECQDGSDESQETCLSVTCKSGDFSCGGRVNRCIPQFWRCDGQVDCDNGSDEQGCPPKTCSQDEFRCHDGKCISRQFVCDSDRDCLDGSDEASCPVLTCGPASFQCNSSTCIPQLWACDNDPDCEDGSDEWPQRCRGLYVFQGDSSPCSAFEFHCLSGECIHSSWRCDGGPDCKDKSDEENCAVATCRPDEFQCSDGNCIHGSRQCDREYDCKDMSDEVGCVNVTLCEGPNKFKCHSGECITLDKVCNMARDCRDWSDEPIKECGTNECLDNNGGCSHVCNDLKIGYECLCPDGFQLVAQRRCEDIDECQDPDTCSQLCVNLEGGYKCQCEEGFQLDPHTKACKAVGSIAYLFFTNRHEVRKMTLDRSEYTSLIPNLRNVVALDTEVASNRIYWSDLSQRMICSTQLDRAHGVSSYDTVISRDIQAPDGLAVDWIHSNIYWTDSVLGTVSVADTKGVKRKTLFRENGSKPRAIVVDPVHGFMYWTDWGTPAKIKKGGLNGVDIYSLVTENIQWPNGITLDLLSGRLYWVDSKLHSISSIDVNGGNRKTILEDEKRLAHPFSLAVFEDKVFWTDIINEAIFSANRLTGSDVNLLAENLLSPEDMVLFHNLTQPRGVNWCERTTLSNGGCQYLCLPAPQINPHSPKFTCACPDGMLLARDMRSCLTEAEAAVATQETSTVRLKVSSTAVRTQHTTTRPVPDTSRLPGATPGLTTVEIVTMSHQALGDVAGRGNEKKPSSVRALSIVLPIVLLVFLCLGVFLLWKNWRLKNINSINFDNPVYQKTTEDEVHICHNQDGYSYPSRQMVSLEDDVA

[3] = molecular target: T6, LDLR extracellular domain (human, UniProt P01130 22-788); assay: cell surface interaction assay: ECD tetramer on transfected cells (FIG. 5N)
T6 construct: extracellular domain; Soluble query, streptavidin tetramer; also called low-density lipoprotein receptor
T6 sequence (P01130 22-788): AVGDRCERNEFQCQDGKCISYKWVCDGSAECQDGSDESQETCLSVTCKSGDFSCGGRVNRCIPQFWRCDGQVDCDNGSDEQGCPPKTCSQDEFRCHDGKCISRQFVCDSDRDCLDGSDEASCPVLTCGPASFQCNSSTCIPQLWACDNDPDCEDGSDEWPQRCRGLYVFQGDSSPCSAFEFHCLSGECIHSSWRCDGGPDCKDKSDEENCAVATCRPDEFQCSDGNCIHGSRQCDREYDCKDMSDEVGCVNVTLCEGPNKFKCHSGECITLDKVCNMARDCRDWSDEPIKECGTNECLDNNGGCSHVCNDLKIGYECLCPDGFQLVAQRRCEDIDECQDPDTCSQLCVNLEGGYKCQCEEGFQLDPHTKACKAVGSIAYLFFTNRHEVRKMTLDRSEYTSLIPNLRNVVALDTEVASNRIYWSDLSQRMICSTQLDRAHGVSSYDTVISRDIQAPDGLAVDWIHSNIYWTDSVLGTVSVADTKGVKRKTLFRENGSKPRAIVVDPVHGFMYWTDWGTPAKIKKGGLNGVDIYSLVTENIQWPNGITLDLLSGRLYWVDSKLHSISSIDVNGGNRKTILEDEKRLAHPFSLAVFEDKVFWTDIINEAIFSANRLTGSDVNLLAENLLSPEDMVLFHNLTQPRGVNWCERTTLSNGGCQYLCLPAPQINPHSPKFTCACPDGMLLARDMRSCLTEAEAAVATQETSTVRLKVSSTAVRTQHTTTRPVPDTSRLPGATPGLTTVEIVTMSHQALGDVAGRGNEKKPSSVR

FLT4 expressed on cells = molecular target: T7, FLT4 expressed on cells (human, UniProt P35916 25-1363); assay: cell surface interaction assay: soluble multimerized LILRB on transfected cells
T7 construct: whole, on cells; also called VEGFR3; vascular endothelial growth factor receptor 3
T7 sequence (P35916 25-1363): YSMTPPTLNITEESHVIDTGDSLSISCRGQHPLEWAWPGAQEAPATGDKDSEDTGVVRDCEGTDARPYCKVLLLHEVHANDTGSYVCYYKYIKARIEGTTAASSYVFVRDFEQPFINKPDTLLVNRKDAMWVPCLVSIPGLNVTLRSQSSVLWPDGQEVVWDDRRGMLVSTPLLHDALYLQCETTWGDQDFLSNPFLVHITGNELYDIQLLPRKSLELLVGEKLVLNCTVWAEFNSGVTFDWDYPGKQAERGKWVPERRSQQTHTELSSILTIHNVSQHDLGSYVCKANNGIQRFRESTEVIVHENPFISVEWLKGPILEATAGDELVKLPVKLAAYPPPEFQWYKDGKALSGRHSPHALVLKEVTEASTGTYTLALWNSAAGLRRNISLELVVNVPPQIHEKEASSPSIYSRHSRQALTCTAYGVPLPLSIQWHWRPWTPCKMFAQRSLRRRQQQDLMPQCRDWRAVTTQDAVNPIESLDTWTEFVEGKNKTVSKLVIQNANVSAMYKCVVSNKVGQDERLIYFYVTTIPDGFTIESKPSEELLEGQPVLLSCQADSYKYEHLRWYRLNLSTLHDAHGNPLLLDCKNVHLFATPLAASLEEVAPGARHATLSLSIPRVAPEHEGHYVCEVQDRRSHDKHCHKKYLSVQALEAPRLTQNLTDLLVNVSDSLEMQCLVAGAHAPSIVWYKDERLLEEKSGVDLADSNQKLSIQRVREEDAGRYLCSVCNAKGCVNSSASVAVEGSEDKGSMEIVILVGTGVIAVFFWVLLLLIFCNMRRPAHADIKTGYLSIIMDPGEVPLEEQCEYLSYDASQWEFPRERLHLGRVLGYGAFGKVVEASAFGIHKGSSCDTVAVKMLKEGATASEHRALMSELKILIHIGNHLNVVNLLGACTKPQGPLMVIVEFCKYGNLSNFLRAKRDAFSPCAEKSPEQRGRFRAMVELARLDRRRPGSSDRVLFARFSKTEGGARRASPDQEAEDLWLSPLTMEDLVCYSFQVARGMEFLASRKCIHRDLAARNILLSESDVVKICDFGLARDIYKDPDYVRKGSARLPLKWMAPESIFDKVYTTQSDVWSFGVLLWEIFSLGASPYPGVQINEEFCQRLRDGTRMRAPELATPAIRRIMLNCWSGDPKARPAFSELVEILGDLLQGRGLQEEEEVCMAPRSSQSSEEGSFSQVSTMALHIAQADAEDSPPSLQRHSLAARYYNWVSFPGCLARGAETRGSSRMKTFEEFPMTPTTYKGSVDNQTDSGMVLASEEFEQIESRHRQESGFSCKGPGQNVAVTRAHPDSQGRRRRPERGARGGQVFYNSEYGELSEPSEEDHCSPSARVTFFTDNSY

IL6R expressed on cells = molecular target: T2, IL6R expressed on cells; assay: as above
[4] = molecular target: T3, CD177 extracellular domain; assay: SPR, fit to equilibrium; CD177 ECD immobilized, monomeric Avi-tagged PDPN ectodomain as analyte
Experimental: (§2) SPR was measured using a Proteon XPR36 Instrument (Biorad) or a Biacore 3000 (GE Healthcare). […] Bulk refractive index changes were removed by substrating a reference flow response. For KD calculations, 300-400 resonance units were immobilized, and kinetic data were fit to equilibrium or a Langmuir model to calculate kinetic parameters for CD177 and CLEC-2 binding, respectively. […] All sensorgrams were analyzed with BiaEvaluation 4.1 (Biacore) or Proteon Manager 3.1.0.6 (Proteon) software.

[5] = molecular target: T8, CLEC-2 extracellular domain (human, UniProt Q9P126 55-229); assay: SPR, Langmuir model; CLEC-2 ECD immobilized, monomeric Avi-tagged PDPN ectodomain as analyte
T8 construct: extracellular domain; Recombinant ECD in SPR and CAF assays; streptavidin tetramer in organoid cultures; also called CLEC1B; rCLEC-2
T8 sequence (Q9P126 55-229): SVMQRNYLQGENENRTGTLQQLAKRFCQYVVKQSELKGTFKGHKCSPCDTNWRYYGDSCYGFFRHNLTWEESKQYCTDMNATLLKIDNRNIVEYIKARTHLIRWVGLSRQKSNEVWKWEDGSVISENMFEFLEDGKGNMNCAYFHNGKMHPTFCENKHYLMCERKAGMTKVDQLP
Experimental: as §2

[6] = molecular target: T9, LILRB4 expressed on cells (human, UniProt Q8NHJ6 22-448); assay: cell surface interaction assay: ECD tetramer on transfected cells (FIG. 5N)
T9 construct: whole, on cells; C-terminally tagged in the co-IP; also called LILRB4-FLAG

Question: Does B1 bind [1]?
Answer: binds

Question: Does B1 bind (EPHA5)?
Answer: no binding (tested: 250 nM)

Question: Does B2 bind [2]?
Answer: binds

Question: Does B3 bind (LDLR expressed on cells)?
Answer: binds

Question: Does B4 bind [3]?
Answer: binds

Question: Which results are given for B5?
Answer: binding result (FLT4 expressed on cells): binds; binding result (IL6R expressed on cells): binds

Question: B6 was tested. Which Kd [4] did it give?
Answer: 3300 nM

Question: What about the Kd [5] of the same binder?
Answer: 210 nM

Question: Does B7 bind [6]?
Answer: binds
